What all share (conditions): 50 °C, 50 mM sodium phosphate pH 7.4 (also Tris-HCl pH 8.5), 5 μM enzyme, 1-20 mM substrate
Data set [1] relates to T1, EstA3_Bb (naturally shorter B. brevis esterase).
T1 construct: gene EstA3.bb; full-length natural enzyme lacking the C-terminal tail, 6xHis-tag (pET28a, plasmid pFEM170), codon-optimised synthetic gene, E. coli BL21(DE3) pLysS, Ni-NTA; calculated mass 35,243
The data set is described as follows: p-nitrophenol release at […] nm, Lineweaver-Burk. It counts as biochemical, Brevibacillus brevis.

Substrate in data set [2]: CCCC(=O)Oc1ccc([N+](=O)[O-])cc1
The data set is described as follows: purified protein. Format: biochemical, Caldanaerobacter subterraneus.

Substrate in data set [3]: CCCCCCCC(=O)Oc1ccc([N+](=O)[O-])cc1
As to the kind of experiment: purified protein. Format: biochemical, Caldanaerobacter subterraneus.

With `CCCC(=O)Oc1ccc([N+](=O)[O-])cc1` [pNPC4, p-nitrophenyl butyrate], the Michaelis-Menten constant (Km) in data set [1] (table value, text b31 prints 0.53 mM) is 590 µM.
For the molecule `CCCCCCCC(=O)Oc1ccc([N+](=O)[O-])cc1` [pNPC8, p-nitrophenyl caprylate], in data set [1], the Km was 510 µM.

B1: EstA3_Tt (wild-type T. tengcongensis esterase EstA3, LipA3) (Caldanaerobacter subterraneus subsp. tengcongensis MB4) (protein)
chain: MNNPVVFLHGIFGSIFTPTPLGKIWSFGPAANIYAPFIEDLQKIGLVENKNLFVCYYEWWRKIPDAVDKLILAIEEAKAKTGSSKVDLVCHSMGGLLARSYLQSDKYQFDVDKLILLGTPNLGAANAYYGWEGGTVPPDDEDFVNMLFRGFLWIFSKIKGEKDAVTVIRKYIPSIKDLMPSKEYGSYLFMYPVRYEKILFKNIEYMKVINDFLNDLNEKADILYERVRSVYLFAGEGVYTNKFIQVEKSESEVVWPDGKPVGVIRDDKGDGTVLTKSALGINGEEIVLKSSHIGILKDSVSYLGEILGIREKPSISLLEKAISYLSIITDKKIVVLDRSKKIKTYDVFGKYNWHVCFEPEGVYKISIKEPGMSEFYIETNKKTVEKKFKSSRLSRGAEFTLEVDEEGNFKMRDG
notes: full length, 6xHis-tag (pET28a, plasmid pFEM45), codon-optimised synthetic gene, E. coli BL21(DE3) pLysS, Ni-NTA; calculated mass 47,078
Regarding B1, the Km in “purified protein [2]” turned out to be 530 µM; in the data set “purified protein [3]” (listed as label shifted in table, assigned by text b31), 490 µM.

B2: EstA3_TtΔ (truncated T. tengcongensis esterase) (Caldanaerobacter subterraneus subsp. tengcongensis MB4) (protein)
chain: MNNPVVFLHGIFGSIFTPTPLGKIWSFGPAANIYAPFIEDLQKIGLVENKNLFVCYYEWWRKIPDAVDKLILAIEEAKAKTGSSKVDLVCHSMGGLLARSYLQSDKYQFDVDKLILLGTPNLGAANAYYGWEGGTVPPDDEDFVNMLFRGFLWIFSKIKGEKDAVTVIRKYIPSIKDLMPSKEYGSYLFMYPVRYEKILFKNIEYMKVINDFLNDLNEKADILYERVRSVYLFAGEGVYTNKFIQVEKSESEVVWPDGKPVGVIRDDKGDGTVLTKSALGINGEEIVLKSSHIGILKDSVSYLGEILG
notes: catalytic domain; 6xHis-tag (pET28a, plasmid pFEM103), E. coli BL21(DE3) pLysS, Ni-NTA; calculated mass 34,719
On to B2, for which the Km in the data set “purified protein [2]” was found to be 640 µM; in the data set “purified protein [3]”, 560 µM.

Values taken from article PMC10816834, “Role of the C-Terminal β Sandwich of Thermoanaerobacter tengcongensis Thermophilic Esterase in Hydrolysis of Long-Chain Acyl Substrates” (International Journal of Molecular Sciences, 2024).
